Common to all, as to test: cell-based or functional assay
The target of experiment [1] is HIV-1 Env of pseudovirus CNE8 (clade CRF01_AE) (HIV-1).
Experiment [2] concerns the target HIV-1 Env of pseudovirus X2088_c9 (clade G) (HIV-1).
Experiment [3] has as its target HIV-1 Env of pseudovirus MS208A1 (HIV-1).
For experiment [4], the target named is HIV-1 Env of pseudovirus BF1266.431a (clade C (T/F)) (HIV-1).
Experiment [5] deals with HIV-1 Env of pseudovirus ZM247v1(Rev-) (clade C (T/F)) (HIV-1).
Experiment [6] addresses HIV-1 Env pseudovirus BJOX010000.06.2 (HIV-1).
The target of experiment [7] is MuLV pseudovirus (Neg. Control) (MuLV).
In experiment [8] the target is HIV-1 Env pseudovirus CNE5 (HIV-1).
For experiment [9], the target named is HIV-1 Env of pseudovirus 1394C9G1 (Rev-) (HIV-1).

In experiment [1], 10-1074 (antibody) yielded an IC50, titer in TZM.bl cells of over 50 µg/mL and an IC80, titer in TZM.bl cells of over 50 µg/mL. Also, in [2], the IC50, titer in TZM.bl cells is 0.003 µg/mL and the IC80, titer in TZM.bl cells is 0.014 µg/mL.
In experiment [2], 10E8 (antibody) registered an IC50, titer in TZM.bl cells of over 10 µg/mL and an IC80, titer in TZM.bl cells of over 10 µg/mL.
In [3], N49P7 (antibody) registered a neutralization IC50 of 0.12 µg/mL, a neutralization IC80 of 0.479 µg/mL and a neutralization MPI of 100.
For N49P7.1 (antibody) the same measures were 0.12 µg/mL, 0.431 µg/mL and 100.
The term IC50 denotes the concentration needed to halve the response being measured. Higher therefore signals lower potency. In general, IC80 refers to the point of the concentration-response curve where the effect stands at 80%. A high value points to weaker potency. In [4], N49P7.2 (antibody) registered a concentration for half-maximal inhibition (IC50) of 0.029 µg/mL, an 80% effect concentration (IC80) of 0.159 µg/mL and an MPI of 100. In experiment [5], this substance came in with an IC50 of 0.177 µg/mL, an IC80 of 2.5 µg/mL and an MPI of 96.
In experiment [6], N49P9 (antibody) returned an IC50 of 0.482 µg/mL, an 80% effect concentration (IC80) of 2.34 µg/mL and an MPI of 100. In experiment [7], this substance had a half-maximal inhibitory concentration (IC50) of over 50 µg/mL, an IC80 of over 50 µg/mL and an MPI of 13.
N49P9.1 (antibody): in experiment [6], the concentration for half-maximal inhibition (IC50) was determined as 0.883 µg/mL, the IC80 amounted to 4.26 µg/mL and the MPI was determined as 100. In experiment [8], this substance had a half-inhibitory concentration (IC50) of 0.183 µg/mL, an 80% effect concentration (IC80) of 0.641 µg/mL and an MPI of 100.
In experiment [4], N49P11 (antibody) came in with an IC50 of 0.998 µg/mL, an 80% effect concentration (IC80) of 7.13 µg/mL and an MPI of 100. In addition, in [5], the half-maximal inhibitory concentration (IC50) is 7.48 µg/mL, the 80% effect concentration (IC80) turned out to be 21.5 µg/mL and the MPI was found to be 100.
In experiment [4], N49P18.1 (antibody) gave an IC50 of 3.48 µg/mL, an IC80 of 20.8 µg/mL and an MPI of 93. In experiment [5], this substance came in with an IC50 of 10.9 µg/mL, an IC80 of over 50 µg/mL and an MPI of 79.
With N49P19 (antibody), the values for the IC50 in [6], in experiment [8] and in experiment [7] were 4.16 µg/mL, 0.748 µg/mL and over 50 µg/mL, respectively. Moreover, the concentration for an effect of 80% (IC80) was 19.1 µg/mL in [6], 3.29 µg/mL in [8] and over 50 µg/mL in experiment [7]. Further, the figures for the MPI in [6], in [8] and in [7] were 96, 100 and 0, respectively.
In [2], PG9 (antibody) displayed an IC50, titer in TZM.bl cells of over 50 µg/mL and an IC80, titer in TZM.bl cells of over 50 µg/mL.
In experiment [2], PG16 (antibody) gave an IC50, titer in TZM.bl cells of over 50 µg/mL and an IC80, titer in TZM.bl cells of over 50 µg/mL.
In [9], VRC01 (antibody) returned an IC50, titer in TZM.bl cells of 0.36 µg/mL and an IC80, titer in TZM.bl cells of 1.28 µg/mL.
